Laboratory results taken from doi:10.1101/2021.01.26.428356.

Biological target: Fc-tagged receptor-binding domain (RBD) of the SARS-CoV-2 spike (S) protein (SARS-CoV-2) (UniProt P0DTC2)
Experiment: BLI; Octet Red96e; Fc-tagged RBD loaded onto the biosensor (streptavidin biosensors as printed), Fab in solution; 1x PBS pH 7.4, 0.01% w/v BSA, 0.002% v/v Tween 20; 60 s association, 60 s dissociation; 1:1 binding model

COV107-23 heavy chain paired with the light chain of COVD21-C8 (Fab)
Kd: > 1000 nM

COVD21-C8 heavy chain paired with the light chain of COV107-23 (Fab)
Kd: > 1000 nM
